Test results: patent publication US20040210041A1
Positions of bridges follow the written chain, without caps; N, C: chain ends. Groups on a side chain read outwards from the residue. Chains are numbered I, II in the order given. *: point of attachment. Biotin = O=C1N[C@H]2[C@H](CS[C@H]2CCCCC(=O)*)N1; AEEA = NCCOCCOCC(=O)O

Assays:
[1] = target: KDR (VEGFR-2), full-length receptor on cells (human), P35968; assay: competition with 300 pM 125I-VEGF on KDR-transfected 293H cells; peptide 0.3 µM; settings: remark: other sources report otherwise
[2] = target: KDR (VEGFR-2), full-length receptor on cells (human), P35968; assay: competition with 300 pM 125I-VEGF on KDR-transfected 293H cells; peptide 30 µM; settings: remark: other sources report otherwise
[3] = target: KDR (VEGFR-2), full-length receptor on cells (human), P35968; assay: specific binding of neutravidin-HRP complex at 2.78 nM to KDR-transfected cells; reference P1-XB (3X) + P6-XB (1X) at 5.55 nM
[4] = target: KDR (VEGFR-2), full-length receptor on cells (human), P35968; assay: specific binding of neutravidin-HRP complex at 3.33 nM to KDR-transfected cells; reference P5-XB (1X) + P1-XB (3X)

KDR (VEGFR-2), full-length receptor on cells (human), P35968, sequence (P35968 20-1356): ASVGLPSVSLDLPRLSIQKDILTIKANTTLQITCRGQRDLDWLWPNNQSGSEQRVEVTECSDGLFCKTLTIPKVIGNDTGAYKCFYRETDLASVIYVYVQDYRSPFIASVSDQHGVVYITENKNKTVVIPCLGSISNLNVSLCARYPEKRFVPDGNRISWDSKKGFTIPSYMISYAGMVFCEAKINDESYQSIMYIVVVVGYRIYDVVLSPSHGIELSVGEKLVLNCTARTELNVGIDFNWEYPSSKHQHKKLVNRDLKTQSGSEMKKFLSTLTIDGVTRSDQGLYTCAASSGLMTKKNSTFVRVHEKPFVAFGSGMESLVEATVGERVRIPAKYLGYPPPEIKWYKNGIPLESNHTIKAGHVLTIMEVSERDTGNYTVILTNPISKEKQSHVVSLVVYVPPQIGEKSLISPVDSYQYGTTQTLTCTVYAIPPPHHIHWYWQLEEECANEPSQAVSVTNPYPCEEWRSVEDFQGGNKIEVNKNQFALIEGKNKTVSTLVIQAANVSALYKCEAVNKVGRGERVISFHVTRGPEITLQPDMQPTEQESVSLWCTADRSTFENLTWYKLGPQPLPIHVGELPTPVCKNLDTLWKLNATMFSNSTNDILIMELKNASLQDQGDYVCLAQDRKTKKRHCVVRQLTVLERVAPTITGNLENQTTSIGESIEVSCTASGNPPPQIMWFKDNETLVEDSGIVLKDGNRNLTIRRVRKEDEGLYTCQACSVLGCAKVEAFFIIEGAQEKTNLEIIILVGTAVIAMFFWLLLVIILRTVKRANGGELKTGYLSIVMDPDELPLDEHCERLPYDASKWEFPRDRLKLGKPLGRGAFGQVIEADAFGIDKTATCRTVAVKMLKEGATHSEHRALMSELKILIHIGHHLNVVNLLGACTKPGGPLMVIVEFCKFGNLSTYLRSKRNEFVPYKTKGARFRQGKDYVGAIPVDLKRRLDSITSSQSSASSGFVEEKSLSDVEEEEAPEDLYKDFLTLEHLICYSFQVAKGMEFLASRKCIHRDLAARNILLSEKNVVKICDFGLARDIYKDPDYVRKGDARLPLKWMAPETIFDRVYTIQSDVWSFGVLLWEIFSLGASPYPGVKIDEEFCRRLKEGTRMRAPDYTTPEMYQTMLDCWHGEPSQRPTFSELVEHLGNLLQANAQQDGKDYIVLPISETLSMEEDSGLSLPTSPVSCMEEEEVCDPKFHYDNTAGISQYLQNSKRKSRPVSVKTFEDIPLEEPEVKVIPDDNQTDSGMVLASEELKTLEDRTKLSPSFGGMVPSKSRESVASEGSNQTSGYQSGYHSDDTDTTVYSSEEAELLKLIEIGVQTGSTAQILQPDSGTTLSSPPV

Row | Binder | Heteromer/Monomer Ratio [4] | other results
1 | Ac-AGPKWCEEDWYYCMITGTGGGK([AEEA-AEEA-Biotin])-NH2 (disulfide 6-13 (inferred)) [P5-XB] | – | % inhibition of 125I-labeled VEGF binding [1]: 24.4%; % inhibition of 125I-labeled VEGF binding [2]: 48%
2 | P1-XB (1X) + P6-XB (1X) + P12-XB (2X) / neutravidin-HRP (peptide, not shown: large carriers; small tags and cut ends, disulfide I:6-I:16, II:6-II:13 (inferred); not fully specified; also: bound via biotin to neutravidin-HRP) peptide 1: Ac-GDSRVCWEDSWGGEVCFRYDPGGGK([AEEA-AEEA-Biotin])-NH2 peptide 2: Ac-AGPTWCEDDWYYCWLFGTGGGK([AEEA-AEEA-Biotin])-NH2 | – | Heteromer/Monomer Ratio [3]: 47 fold
3 | P1-XB (1X) + P6-XB (1X) + P5-XB (2X) / neutravidin-HRP (peptide, not shown: large carriers; small tags and cut ends, disulfide I:6-I:16, II:6-II:13 (inferred); not fully specified; also: bound via biotin to neutravidin-HRP) peptide 1: Ac-GDSRVCWEDSWGGEVCFRYDPGGGK([AEEA-AEEA-Biotin])-NH2 peptide 2: Ac-AGPKWCEEDWYYCMITGTGGGK([AEEA-AEEA-Biotin])-NH2 | 213 fold | –

Further lines, with some results ahead:

Row | Heteromer/Monomer Ratio [4] | Binder | other results
4 | 242 fold | P1-XB (1X) + P6-XB (2X) + P5-XB (1X) / neutravidin-HRP (peptide, not shown: large carriers; small tags and cut ends, disulfide I:6-I:16, II:6-II:13 (inferred); not fully specified; also: bound via biotin to neutravidin-HRP) peptide 1: Ac-GDSRVCWEDSWGGEVCFRYDPGGGK([AEEA-AEEA-Biotin])-NH2 peptide 2: Ac-AGPKWCEEDWYYCMITGTGGGK([AEEA-AEEA-Biotin])-NH2 | –
5 | 109 fold | P1-XB (2X) + P6-XB (1X) + P5-XB (1X) / neutravidin-HRP (peptide, not shown: large carriers; small tags and cut ends, disulfide I:6-I:16, II:6-II:13 (inferred); not fully specified; also: bound via biotin to neutravidin-HRP) peptide 1: Ac-GDSRVCWEDSWGGEVCFRYDPGGGK([AEEA-AEEA-Biotin])-NH2 peptide 2: Ac-AGPKWCEEDWYYCMITGTGGGK([AEEA-AEEA-Biotin])-NH2 | –
